Sequences and labels used below:
B1: mRNA-splicing (parent)
chain: AGUUGCUGCUGGGAGCUCCAGCACAGUGAAAUGGACAGAAGGGCAGAGCAA

The series covers variants of B1. Description: exon inclusion enrichment index; higher = more inclusion; WT1 exon 5 minigene, HEK293.
As to G5C C6A U7C G8A U10A G33A, the “exon inclusion enrichment index” value was 0.00667. With G5C C6G U7C U10C C19G A20U, the “exon inclusion enrichment index” value stood at 3.16. Take C6A U7C C9A U10C A39U A40U: the “exon inclusion enrichment index” value was 1.76.

As to G2A U3G, the “exon inclusion enrichment index” value worked out at 0.0392. To G5U G8U C9U U27A G28C belongs 0.109; to G5A C6G U7G C9A G43C C44A, 0.0166. C6A U7C C9A U10C C44A A45U: the “exon inclusion enrichment index” value amounted to 5.42. For G5C C6U U7A G8U C9U U10C the value was 0.663. For G15U C16G the value was 0.0648. To G8U C9A belongs 0.386; to C9U, 1.36. In the case of G5C C6G U7C U10C G13A A14G, the “exon inclusion enrichment index” value stood at 3.3. For G5C C6U G8C C9U U10C A45C G46A the value was 1.12; for G5U G8U C9U U10A, 0.00828. For G5A C6U U7A G8U C9A A40C G41A the value was 0.00954. For C6A U7A C9A U10A A30G A31U the value was 0.133. In the case of A45C G46A, the “exon inclusion enrichment index” value came out at 0.0421. For the variant G5A U7C G8A U10C C44A A45G, the “exon inclusion enrichment index” value turned out to be 3.75. For G5A U7C G8A U10C A47C G48C the value was 2.06; for U3A G5C C6G U7C U10C, 4.21. To G5C C6U G8A C9U U10C belongs 0.941; to G5A C6G U7G C9A A35C C36U, 0.000826. To C24U A25U belongs 0.208; to G5A C6G U7G C9A A31G U32C, 0.00508. On to G5U G8U C9U A45G G46C, for which the “exon inclusion enrichment index” value amounted to 0.262. To G5A U7C G8A U10C G21C C22U belongs 2.19; to G5C C6U G8C C9U U10C G26U U27A, 0.886. To G5C C6G U7C U10C G43A C44A belongs 4.31; to G5A C6U U7A G8U C9A A31C U32A, 0.0278; to G5A U7C G8A U10C G33C G34C, 1.34.

Regarding G5C C6U G8C C9U U10C A45U G46U, the “exon inclusion enrichment index” value was determined as 0.648. For G5U G8U C9U G21A the value was 0.0718; for G5C C6A U7C G8A U10A C18G, 0.097. For G5A U7C G8A U10C A31U U32C the value was 3.11.

Regarding G5U G8U C9U A35C C36U, the “exon inclusion enrichment index” value came to 0.0048. For U3C U4A G5C C6A U7C G8A U10A the value was 0.0745. For G12U G13U the value was 0.199. For U3G U4A G5A U7C G8A U10C the value was 2.25; for G5A U7C G8A U10C G38A A39G, 2.26; for G5A U7C G8A U10C G38A A39C, 1.95.

Turning to G5C C6A U7C G8A U10A G43A C44A, the “exon inclusion enrichment index” value was 0.532. To C6A U7C C9A U10C G12A belongs 3.18; to G2U U3G G5U G8U C9U, 0.724. Regarding G5C C6U G8C C9U U10C A20U G21C, the “exon inclusion enrichment index” value was determined as 1.62. To G5U U7A G8C C9U belongs 0.582; to G5C C6U G8C C9U U10C U17A C18G, 1.83.

For G5A C6G U7G C9A U17A, the “exon inclusion enrichment index” value amounted to 0.00695. To G5C C6U G8C C9U U10C G13C A14C belongs 1.15; to G5A C6U U7A G8U C9A A20G G21U, 0.0713. For G5C C6G U7C U10C G26C the value was 3.97; for G5A C6U U7A G8U C9A G46A, 0.0879; for G5C C6U G8C C9G U10C, 3.48. To G5C C6A U7C G8A U10A C36A A37G belongs 0.0468; to C6A U7C C9A U10C G33A, 0.648.

With G5A C6U U7A G8U C9A U10A G11C, the “exon inclusion enrichment index” value is 0.176. For G5C C6G U7C C9G U10C the value was 2.62; for U27G G28A, 0.354; for G5C C6U G8C C9U U10C U27A, 2.29. For C6A U7C C9A U10C A35G C36U the value was 0.107; for G5A U7C G8A U10C C16A, 2.46. For G5A C6U U7A G8U C9A A23G C24U, the “exon inclusion enrichment index” value worked out at 0.0127. To G28U A29C belongs 0.0665. With G5U G8U C9U G26U U27A, the “exon inclusion enrichment index” value amounted to 0.0473. To G5A C6U U7A G8U C9A A29U A30C belongs 0.0463.

For G13C A14U, the “exon inclusion enrichment index” value amounted to 0.194. For G5C C6U G8C C9U U10C A47G, the “exon inclusion enrichment index” value came to 0.327. To G5A C6G U7G C9A G38C A39U belongs 0.000965; to G5A C6U U7A C9U, 0.0151; to G5C C6A U7C G8A U10A A29U, 0.035. To G5C C6U G8C C9U U10C G38U A39G belongs 0.734; to G5A C6U U7A G8U C9A G11U G12U, 0.00843. For G5A U7A G8A U10C the value was 1.72.

For G5C C6U G8C C9U U10C A25U G26U, the “exon inclusion enrichment index” value amounted to 1.7.

For C6A U7A C9A U10A C22A A23C, the “exon inclusion enrichment index” value was determined as 1.39. For G5C C6A U7C G8A U10A G43C the value was 0.238. To G5C C6G U7C U10C U17C belongs 3.43; to G5C C6A U7C U10C, 3.16. For G5U G8U C9U G13A A14G the value was 0.152; for G5U G8U C9U G13A A14C, 0.61. As to G5A C6U U7A G8U C9A A31U U32A, the “exon inclusion enrichment index” value amounted to 0.0012. Regarding G5A U7C G8A U10C A30U, the “exon inclusion enrichment index” value stood at 1.71.

Regarding G5C C6A U7C G8A U10A A47U G48C, the “exon inclusion enrichment index” value came out at 0.0757.

Regarding G5C C6G U7C G8A C9U U10C, the “exon inclusion enrichment index” value was found to be 3.11. To G5A C6G U7G C9A C22U A23C belongs 0.000879.
